Measured values taken from PMC3741069 (Biochemistry, 2013).

B1: nitrate reductase (NarB) (Synechococcus elongatus PCC 7942 = FACHB-805; R160Q) (protein)
chain: MIDTAKTLCPYCGVGCGLEAVPPAQPGRATVRDREGTPIWQIRGDRQHPSSQGMVCVKGATVAESVSKSRLKYPMFRASLDDPFTEISWDEALDRLCDRIQQTQADYGKDGICFYGSGQFQTEDYYIAQKLVKGCLGTNNFDTNSQLCMSSAVSAYSLCLGSDGPPACYEDLDLADCLLIVGSNTAECHPILFNRYRKRHKQGGTNLIVVDPRCTPTAEVADLHLALKPGSDVALLNGLGWLLYQMGYVKKDFIANQTEGFEDWLAIIEDYPPQRTAELTGLAVAELVRAADLIASAQRWLSLWSMGVNQSIQGTAKATSLINLHLLTRQIGLPGCGPFSLTGQPNAMGGRETGGLAHLLPGYRKVIDPQHRADVETIWGLPMGSISPQPGRTAWQMIEGLEQGAVGFLWVAATNPAVSLPDVKRAQAALKRSPFTVLQDAYHPTETTTYAHLLLPAAQWSEKTGTMTNSERRVTLCQAFRQPPGEARADWQIFAEVGRRLGFAFDYTDAAAVFAEYVQVTAGRLCDLSGLSHELLAQAGPQQWPFPAGAEPTTESKRLYTKHHFAYADGRARFQPFHHLGVAEPPDDRYPLVLTVGRLYGHWHTQTRTGRIDKINKLHPSAFVEIHPRDADRYNISEGQAVVIRSRRGEGCFPAKVTTAISPGVLFVPMHWGALWGDRTEANALTHPAACPISGEPELKACAVQIEAASSTFTI
B2: nitrate reductase (NarB) (Synechococcus elongatus PCC 7942 = FACHB-805; K144Q) (protein)
chain: MIDTAKTLCPYCGVGCGLEAVPPAQPGRATVRDREGTPIWQIRGDRQHPSSQGMVCVKGATVAESVSKSRLKYPMFRASLDDPFTEISWDEALDRLCDRIQQTQADYGKDGICFYGSGQFQTEDYYIAQQLVKGCLGTNNFDTNSRLCMSSAVSAYSLCLGSDGPPACYEDLDLADCLLIVGSNTAECHPILFNRYRKRHKQGGTNLIVVDPRCTPTAEVADLHLALKPGSDVALLNGLGWLLYQMGYVKKDFIANQTEGFEDWLAIIEDYPPQRTAELTGLAVAELVRAADLIASAQRWLSLWSMGVNQSIQGTAKATSLINLHLLTRQIGLPGCGPFSLTGQPNAMGGRETGGLAHLLPGYRKVIDPQHRADVETIWGLPMGSISPQPGRTAWQMIEGLEQGAVGFLWVAATNPAVSLPDVKRAQAALKRSPFTVLQDAYHPTETTTYAHLLLPAAQWSEKTGTMTNSERRVTLCQAFRQPPGEARADWQIFAEVGRRLGFAFDYTDAAAVFAEYVQVTAGRLCDLSGLSHELLAQAGPQQWPFPAGAEPTTESKRLYTKHHFAYADGRARFQPFHHLGVAEPPDDRYPLVLTVGRLYGHWHTQTRTGRIDKINKLHPSAFVEIHPRDADRYNISEGQAVVIRSRRGEGCFPAKVTTAISPGVLFVPMHWGALWGDRTEANALTHPAACPISGEPELKACAVQIEAASSTFTI
B3: nitrate reductase (NarB) (Synechococcus elongatus PCC 7942 = FACHB-805) (protein)
chain: MIDTAKTLCPYCGVGCGLEAVPPAQPGRATVRDREGTPIWQIRGDRQHPSSQGMVCVKGATVAESVSKSRLKYPMFRASLDDPFTEISWDEALDRLCDRIQQTQADYGKDGICFYGSGQFQTEDYYIAQKLVKGCLGTNNFDTNSRLCMSSAVSAYSLCLGSDGPPACYEDLDLADCLLIVGSNTAECHPILFNRYRKRHKQGGTNLIVVDPRCTPTAEVADLHLALKPGSDVALLNGLGWLLYQMGYVKKDFIANQTEGFEDWLAIIEDYPPQRTAELTGLAVAELVRAADLIASAQRWLSLWSMGVNQSIQGTAKATSLINLHLLTRQIGLPGCGPFSLTGQPNAMGGRETGGLAHLLPGYRKVIDPQHRADVETIWGLPMGSISPQPGRTAWQMIEGLEQGAVGFLWVAATNPAVSLPDVKRAQAALKRSPFTVLQDAYHPTETTTYAHLLLPAAQWSEKTGTMTNSERRVTLCQAFRQPPGEARADWQIFAEVGRRLGFAFDYTDAAAVFAEYVQVTAGRLCDLSGLSHELLAQAGPQQWPFPAGAEPTTESKRLYTKHHFAYADGRARFQPFHHLGVAEPPDDRYPLVLTVGRLYGHWHTQTRTGRIDKINKLHPSAFVEIHPRDADRYNISEGQAVVIRSRRGEGCFPAKVTTAISPGVLFVPMHWGALWGDRTEANALTHPAACPISGEPELKACAVQIEAASSTFTI
B4: nitrate reductase (NarB) (Synechococcus elongatus PCC 7942 = FACHB-805; K144R) (protein)
chain: MIDTAKTLCPYCGVGCGLEAVPPAQPGRATVRDREGTPIWQIRGDRQHPSSQGMVCVKGATVAESVSKSRLKYPMFRASLDDPFTEISWDEALDRLCDRIQQTQADYGKDGICFYGSGQFQTEDYYIAQRLVKGCLGTNNFDTNSRLCMSSAVSAYSLCLGSDGPPACYEDLDLADCLLIVGSNTAECHPILFNRYRKRHKQGGTNLIVVDPRCTPTAEVADLHLALKPGSDVALLNGLGWLLYQMGYVKKDFIANQTEGFEDWLAIIEDYPPQRTAELTGLAVAELVRAADLIASAQRWLSLWSMGVNQSIQGTAKATSLINLHLLTRQIGLPGCGPFSLTGQPNAMGGRETGGLAHLLPGYRKVIDPQHRADVETIWGLPMGSISPQPGRTAWQMIEGLEQGAVGFLWVAATNPAVSLPDVKRAQAALKRSPFTVLQDAYHPTETTTYAHLLLPAAQWSEKTGTMTNSERRVTLCQAFRQPPGEARADWQIFAEVGRRLGFAFDYTDAAAVFAEYVQVTAGRLCDLSGLSHELLAQAGPQQWPFPAGAEPTTESKRLYTKHHFAYADGRARFQPFHHLGVAEPPDDRYPLVLTVGRLYGHWHTQTRTGRIDKINKLHPSAFVEIHPRDADRYNISEGQAVVIRSRRGEGCFPAKVTTAISPGVLFVPMHWGALWGDRTEANALTHPAACPISGEPELKACAVQIEAASSTFTI

Substrate: O=[N+]([O-])O
Assay: steady-state nitrate reductase assay, Michaelis-Menten fit
Format: biochemical, Synechococcus elongatus
Details: saturating reduced ferredoxin (Synechocystis sp. PCC 6803) as electron donor

| Protein | Km [µM] |
| --- | --- |
| B1 | 2.5 ± 0.3 |
| B2 | 3.3 ± 0.5 |
| B3 | 6.0 ± 1.0 |
| B4 | 5.7 ± 2.5 |
